Our source for the EC50 values is PMC4225554.

For test [1], the target named is RD1-MART1 single-chain TCR, yeast-displayed (human). As to the kind of experiment: flow cytometry on cells. A general note: A flow cytometer gives signals particle by particle.
Test [2] concerns the target RD1-MART1^HIGH single-chain TCR, yeast-displayed (human). Description: flow cytometry on cells.

In general, EC50 refers to the midpoint of the concentration-response curve. Higher therefore signals weaker potency. Consider “MART1 ([…])/HLA-A2, refolded biotinylated monomer (from UniProt P61769 21-119) (peptide-MHC)”, for which the EC50 in test [1] is above 5000 nM; in test [2], 52 nM. Consider “MART1 ([…])/HLA-A2-Ig dimer (from UniProt P61769 21-119) (peptide-MHC)”, for which, in test [1], the EC50 is 130 nM.
